Results from patent US20240262917A1, “ANTIBODIES AGAINST ALK AND METHODS OF USE THEREOF” (Dana-Farber Cancer Institute, Inc., priority 2021, published 2024).
“Also recorded” adds a separate entry of the source.

Assays:
ALK receptor = test: Immunocytochemistry and immunohistochemistry staining of ALK; assay type: binding; settings: 293T and NB9464 cells expressing WT ALK; tumor tissue from ALK F1174L/MYCN transgenic mouse model
Text: (A). Immunocytochemistry staining with the 8G7 antibody of 293T and NB9464 (mouse neuroblastoma cells derived from Th-MycN transgenic tumor model; Weiss et al, 1997) cells expressing a control vector or WT ALK. 5×10^6 cells were fixed in 10% formalin and images captured using a Zeiss AXIO Imager Z1 fluorescence microscope following staining. (B) Immunohistochemistry of tumor tissue from the ALK F1174L/MYCN transgenic mouse model using the 8G7 antibody.

ALK [1] = molecular target: T1, ALK (Homo sapiens, UniProt Q9UM73); test: Western blot analysis of ALK in cell lysates and conditioned media; assay type: binding; set-up: endogenous in cells; host or cells: human neuroblastoma lines (NGP, SH-SY5Y, Kelly and others)
Text: (§1) (A) Western blot analysis of ALK in Kelly and SHEP neuroblastoma cells overexpressing GFP and mutated ALK using the mAb-7 and 8G7 anti-ALK antibodies. The mAb-7 antibody was developed at the Vigny laboratory (INSERM, Unité 706/Université Pierre et Marie Curie, Paris F-75005, France) (Moog-Lutz et al, 2005; PMID: 15886198) and obtained through a Materials Transfer Agreement. (B) Western blot analysis of ALK expression in various non-neuroblastoma cell lines: H1373 (human […]), HeLa (cervical cancer), NIH-3T3 (transformed mouse fibroblast cells) using 8G7 and C26G7 (rabbit monoclonal C-terminal anti-ALK antibody; Cell Signaling Technology; Cat #3333; RRID:AB_836862) anti-ALK antibodies.
(§2) The three HPLC-purified monoclonal antibodies (5H3, 7F7 and 8G7) all of the IgG1 subtype, were tested for their ability to bind to ALK in neuroblastoma cells expressing ALK. Both cell lysates and supernatants from cells grown with and without serum (to increase the expression of ALK) were tested by western blotting. […] (A) Western blot analysis of the indicated hybridoma clones in neuroblastoma cell lines expressing WT (NGP) and mutated (SHSY5Y, Kelly) ALK. NIH3T3 cells were used as controls. (B) Western blot analysis of conditioned media from NGP neuroblastoma and 293T cells engineered to express the WT ALK receptor, with the three ALK mAbs showing binding with the shed ALK extracellular domain. […]
(§3) Cell lysates were prepared in NP-40 buffer (Invitrogen) containing complete protease inhibitor (Roche), phosphatase inhibitor (Roche) and phenylmethylsulfonyl fluoride (PMSF). Lysates were incubated on ice for 20 min and centrifuged at 16,000 g for 15 min at 4° C. Protein concentrations of the supernatants were determined with the DC protein assay kit (Bio-Rad). Protein samples were denatured using NuPAGE LDS sample buffer (Invitrogen) and NuPAGE sample reducing agent (Invitrogen). Proteins were then separated on precast 4-12% Bis-Tris gels (Invitrogen) and transferred to nitrocellulose membranes (Bio-Rad). After blocking in blocking buffer (5% dry milk in TBS with 0.2% Tween-20), membranes were incubated with the primary antibody overnight at 4 °C, washed three times with TBST buffer, chemiluminescent detection performed with the appropriate secondary antibodies and developed using Genemate Blue ultra-autoradiography film (VWR).

ALK [2] = test: as above; assay type: binding, human
Text: as §1, §2
as §3, with “After blocking in blocking buffer (5% dry milk in TBS with 0.2% Tween-20), membranes were incubated with the primary antibody overnight at 4 °C, washed three times with TBST buffer, chemiluminescent detection performed with the appropriate secondary antibodies and developed using Genemate Blue ultra-autoradiography film (VWR).” left out

ALK [3] = molecular target: T1, ALK; test: Screening and subcloning of hybridomas (ELISA, FCM, functional assays); assay type: binding; set-up: The human ALK extracellular domain (19-682 aa) fused to the mouse Fc gene; made in house; host or cells: 293T cells; settings: after subcloning by limiting dilution
Method: HAT-selected fused cells were distributed in 96 well plates and the hybridoma supernatants were subjected to several rounds of screening. Initial screening was performed using ELISA against human Fc to test antigen binding with the ALK ECD-human Fc fusion protein. […] These were rescreened by FACS against Ba/F3 and neuroblastoma (NB) cells expressing ALK. From this screen, 22 positive hybridoma supernatants were tested in an antigen-binding capture ELISA assay and 11 were subsequently selected for further analysis. (A) Binding of hybridoma supernatants using an antigen-binding capture assay. The plate was coated with goat-anti-mouse IgG Fc, incubated with hybridoma supernatants, followed by ALK-HRP and visualized using an HRP substrate. (B) Binding of selected hybridoma supernatants to a human Fc antibody using ELISA screening. Plates were coated with the ALK ECD-human Fc fusion protein (ALK-hFc) together with an irrelevant hFc protein and visualized using an anti-mouse kappa light chain antibody. Only the supernatants with the highest binding are shown.
Supernatants from individual clones were then screened by ELISA and FACS analysis for ALK binding. Shown here is the viability of NGP neuroblastoma cells (expressing ALK) in the presence of anti-mouse IgG antibody in hybridoma clone supernatants. […]
Target sequence in this assay (Q9UM73 19-682): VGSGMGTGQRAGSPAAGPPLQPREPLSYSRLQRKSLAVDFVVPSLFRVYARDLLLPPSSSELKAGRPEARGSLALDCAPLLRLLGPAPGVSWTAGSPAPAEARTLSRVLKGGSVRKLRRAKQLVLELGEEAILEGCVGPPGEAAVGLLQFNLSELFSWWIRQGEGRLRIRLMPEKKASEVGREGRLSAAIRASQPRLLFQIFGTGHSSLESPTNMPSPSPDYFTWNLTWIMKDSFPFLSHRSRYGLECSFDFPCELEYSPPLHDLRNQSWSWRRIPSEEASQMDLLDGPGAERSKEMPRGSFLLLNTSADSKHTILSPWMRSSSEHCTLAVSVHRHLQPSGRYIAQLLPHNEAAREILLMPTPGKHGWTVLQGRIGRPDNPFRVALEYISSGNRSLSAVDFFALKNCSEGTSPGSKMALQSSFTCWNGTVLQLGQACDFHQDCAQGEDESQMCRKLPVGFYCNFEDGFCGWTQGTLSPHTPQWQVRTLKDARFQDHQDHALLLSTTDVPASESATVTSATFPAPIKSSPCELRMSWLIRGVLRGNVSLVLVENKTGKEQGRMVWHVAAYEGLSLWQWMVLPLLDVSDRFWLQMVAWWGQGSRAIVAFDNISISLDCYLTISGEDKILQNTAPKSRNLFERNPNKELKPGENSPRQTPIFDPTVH

ALK receptor, sequence (Q9UM73 19-1038 limits assumed): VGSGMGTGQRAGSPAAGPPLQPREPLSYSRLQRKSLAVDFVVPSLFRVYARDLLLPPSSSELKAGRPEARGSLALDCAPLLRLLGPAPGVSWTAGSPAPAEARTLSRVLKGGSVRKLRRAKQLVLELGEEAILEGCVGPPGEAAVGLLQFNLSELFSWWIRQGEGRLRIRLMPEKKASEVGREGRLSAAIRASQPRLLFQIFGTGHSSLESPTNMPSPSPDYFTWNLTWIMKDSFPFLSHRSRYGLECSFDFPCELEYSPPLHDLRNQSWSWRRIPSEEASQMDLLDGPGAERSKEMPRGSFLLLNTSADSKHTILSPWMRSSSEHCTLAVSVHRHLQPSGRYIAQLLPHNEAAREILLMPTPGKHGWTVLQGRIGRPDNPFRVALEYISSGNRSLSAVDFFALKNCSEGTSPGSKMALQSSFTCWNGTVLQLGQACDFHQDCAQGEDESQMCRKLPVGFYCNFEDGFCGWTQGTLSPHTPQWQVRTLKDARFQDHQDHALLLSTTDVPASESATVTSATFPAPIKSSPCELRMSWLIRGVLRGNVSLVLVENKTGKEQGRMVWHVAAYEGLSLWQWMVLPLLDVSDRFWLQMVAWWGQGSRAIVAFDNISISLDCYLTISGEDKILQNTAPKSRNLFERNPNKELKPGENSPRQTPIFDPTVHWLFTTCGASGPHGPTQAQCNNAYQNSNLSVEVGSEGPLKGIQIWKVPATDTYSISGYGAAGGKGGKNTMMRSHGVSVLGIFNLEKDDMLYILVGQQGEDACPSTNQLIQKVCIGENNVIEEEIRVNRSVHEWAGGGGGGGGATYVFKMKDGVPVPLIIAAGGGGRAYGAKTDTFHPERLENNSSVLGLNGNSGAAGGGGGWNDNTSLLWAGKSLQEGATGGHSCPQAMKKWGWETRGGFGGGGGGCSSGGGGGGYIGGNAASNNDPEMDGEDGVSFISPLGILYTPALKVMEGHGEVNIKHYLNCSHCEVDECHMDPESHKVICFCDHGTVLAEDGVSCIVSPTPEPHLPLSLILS

ALK specificity of the clone's monoclonal antibody (ALK [3]): high ALK specificity
B1: 8G7: murine monoclonal IgG1 anti-ALK antibody to the N-terminal ECD of human ALK; VH SEQ ID NO: 3, VL SEQ ID NO: 4 (antibody, V domains shown)
VH: QVQLQQSGAELVRPGASVTLSCKASGYTFTDYEMHWVKQTPVHGLEWIGAIDPETGGSAYNQKFKAKAILTADRSSSTAYMELRSLTSEDSAVYYCTRTRYYGSSPAMDYWGQGTSVTVSS
VL: DIQMTQTTSSLSASLGDRVTISCSASQGIGNYLNWYQQKPDGTVKLLIYYTSSLHSGVPSRFSGSGSGTDYSLTISNLEPEDIATYYCQQYSKLPYTFGGGTKLEIK
binding in immunocytochemistry and immunohistochemistry (ALK receptor): showed binding in engineered cells and transgenic mice tumors | ALK protein recognized by western blotting in cell lysates (ALK [1]; cell lysates of neuroblastoma cells expressing ALK): recognized a 220 kDa protein in the cell lysates of neuroblastoma cells; also recorded: detected the 220 kDa full-length protein but not the 140 kDa fragment in cell lysates | ALK protein recognized by western blotting in media (ALK [1]; conditioned media of NB cells, shed ECD domain): an approximately 100 kDa protein in the media; also recorded: ALK fragment with a molecular mass of approximately 100 kDa was identified in the conditioned media of all five NB cell lines | recognition of ALK in immunoblotting assays (ALK [2]): recognize ALK in immunoblotting assays | specificity of ALK binding by western blot (ALK [2]; FIG. 15 and FIG. 25, compared with mAb-7 and C26G7 anti-ALK antibodies): better specificity compared to commercial Abs; also recorded: binds specifically to the N-terminal region of the ALK protein
